# From patent US7754689B2, “Finger-1 peptide analogs of the TGF-β superfamily” (Wyeth LLC, priority 2006, dated 2010)
# “And” between values parts separate entries of the source, which are not always exact repeats. Identical values can stand only once.
# B1: BMP-12: Bone Morphogenic Protein, member of the TGF-β superfamily; tested in solution and immobilized on Sepharose beads as affinity ligand (protein)
# chain: TALAGTRTAQGSGGGAGRGHGRRGRSRCSRKPLHVDFKELGWDDWIIAPLDYEAYHCEGLCDFPLRSHLEPTNHAIIQTLLNSMAPDAAPASCCVPARLSPISILYIDAANNVVYKQYEDMVVEACGCR
# Test: BMP solubility screen: A320 turbidity of BMP-12 solutions
# Assay type: physicochemical
# Conditions: 50 mM Tris pH 8, 0.5 mg/mL BMP-12
# Protocol: BMP Solubility Screen—A Tecan liquid-handling robot was used to mix a master plate of reagents, 800 μL×1.25 concentration (for each solution; see Tables 2 and 3), each in 50 mM Tris buffer at pH 8. An eight-channel pipettor was used to transfer 80 μL of material from the master plate into a half-area UV microplate, from which A320 was read from each sample to define a blank. A repeat-pipettor was used to add 20 μL of 2.5 mg/mL BMP-12 in 0.1% TFA to make a 0.5 mg/mL solution, which was then agitated at 14000 rpm. The UV absorption (A320) was read and the blank absorption subtracted to determine solubility. The procedure was repeated with a wider range of 2-methyl-2,4-pentanediol (MPD) concentrations and a finer set of salt concentrations (Table 4).
molecule,measurement,setting,value
B1,A320 minus blank (turbidity),"NaCl 0 M, 1-propanol 0%",1.724
same,A320 minus blank (turbidity),"NaCl 0 M, 1-propanol 2.5%",1.848
same,A320 minus blank (turbidity),"NaCl 0 M, 1-propanol 5%",2.134
same,A320 minus blank (turbidity),"NaCl 0 M, 1-propanol 10%",2.000
same,A320 minus blank (turbidity),"NaCl 0 M, 1-propanol 15%",3.172
same,A320 minus blank (turbidity),"NaCl 0 M, 1-propanol 25%",1.419
same,A320 minus blank (turbidity),"NaCl 0 M, 2-methyl-2,4-pentanediol 2.5%",1.936
same,A320 minus blank (turbidity),"NaCl 0 M, 2-methyl-2,4-pentanediol 5%",2.122
same,A320 minus blank (turbidity),"NaCl 0 M, 2-methyl-2,4-pentanediol 10%",2.148
same,A320 minus blank (turbidity),"NaCl 0 M, 2-methyl-2,4-pentanediol 15%",2.035
same,A320 minus blank (turbidity),"NaCl 0 M, 2-methyl-2,4-pentanediol 20%",2.136
same,A320 minus blank (turbidity),"NaCl 0 M, 2-methyl-2,4-pentanediol 25%",2.631
same,A320 minus blank (turbidity),"NaCl 0.00 M, 2-methyl-2,4-pentanediol 30%",3.443
same,A320 minus blank (turbidity),"NaCl 0.00 M, 2-methyl-2,4-pentanediol 35%",3.006
same,A320 minus blank (turbidity),"NaCl 0.00 M, 2-methyl-2,4-pentanediol 40%",3.519
same,A320 minus blank (turbidity),"NaCl 0.00 M, 2-methyl-2,4-pentanediol 45%",3.308
same,A320 minus blank (turbidity),"NaCl 0.05 M, 2-methyl-2,4-pentanediol 25%",1.994
same,A320 minus blank (turbidity),"NaCl 0.05 M, 2-methyl-2,4-pentanediol 30%",0.979
same,A320 minus blank (turbidity),"NaCl 0.05 M, 2-methyl-2,4-pentanediol 35%",0.376
same,A320 minus blank (turbidity),"NaCl 0.05 M, 2-methyl-2,4-pentanediol 40%",0.330
same,A320 minus blank (turbidity),"NaCl 0.05 M, 2-methyl-2,4-pentanediol 45%",0.318
same,A320 minus blank (turbidity),"NaCl 0.1 M, 1-propanol 0%",1.745
same,A320 minus blank (turbidity),"NaCl 0.1 M, 1-propanol 2.5%",2.135
same,A320 minus blank (turbidity),"NaCl 0.1 M, 1-propanol 5%",2.212
same,A320 minus blank (turbidity),"NaCl 0.1 M, 1-propanol 10%",1.945
same,A320 minus blank (turbidity),"NaCl 0.1 M, 1-propanol 15%",3.199
same,A320 minus blank (turbidity),"NaCl 0.1 M, 1-propanol 25%",0.104
same,A320 minus blank (turbidity),"NaCl 0.1 M, 2-methyl-2,4-pentanediol 2.5%",1.900
same,A320 minus blank (turbidity),"NaCl 0.1 M, 2-methyl-2,4-pentanediol 5%",2.338
same,A320 minus blank (turbidity),"NaCl 0.1 M, 2-methyl-2,4-pentanediol 10%",2.341
same,A320 minus blank (turbidity),"NaCl 0.1 M, 2-methyl-2,4-pentanediol 15%",2.287
same,A320 minus blank (turbidity),"NaCl 0.1 M, 2-methyl-2,4-pentanediol 20%",2.573
same,A320 minus blank (turbidity),"NaCl 0.1 M, 2-methyl-2,4-pentanediol 25%",0.715 and 0.626
same,A320 minus blank (turbidity),"NaCl 0.10 M, 2-methyl-2,4-pentanediol 30%",0.206
same,A320 minus blank (turbidity),"NaCl 0.10 M, 2-methyl-2,4-pentanediol 35%",0.150
same,A320 minus blank (turbidity),"NaCl 0.10 M, 2-methyl-2,4-pentanediol 40%",0.083
same,A320 minus blank (turbidity),"NaCl 0.10 M, 2-methyl-2,4-pentanediol 45%",0.087
same,A320 minus blank (turbidity),"NaCl 0.25 M, 1-propanol 0%",1.804
same,A320 minus blank (turbidity),"NaCl 0.25 M, 1-propanol 2.5%",2.397
same,A320 minus blank (turbidity),"NaCl 0.25 M, 1-propanol 5%",2.300
same,A320 minus blank (turbidity),"NaCl 0.25 M, 1-propanol 10%",2.105
same,A320 minus blank (turbidity),"NaCl 0.25 M, 1-propanol 15%",1.392
same,A320 minus blank (turbidity),"NaCl 0.25 M, 1-propanol 25%",0.022
same,A320 minus blank (turbidity),"NaCl 0.25 M, 2-methyl-2,4-pentanediol 2.5%",2.061
same,A320 minus blank (turbidity),"NaCl 0.25 M, 2-methyl-2,4-pentanediol 5%",2.399
same,A320 minus blank (turbidity),"NaCl 0.25 M, 2-methyl-2,4-pentanediol 10%",2.434
same,A320 minus blank (turbidity),"NaCl 0.25 M, 2-methyl-2,4-pentanediol 15%",2.433
same,A320 minus blank (turbidity),"NaCl 0.25 M, 2-methyl-2,4-pentanediol 20%",1.006
same,A320 minus blank (turbidity),"NaCl 0.25 M, 2-methyl-2,4-pentanediol 30%",−0.015
same,A320 minus blank (turbidity),"NaCl 0.25 M, 2-methyl-2,4-pentanediol 35%",−0.065
same,A320 minus blank (turbidity),"NaCl 0.25 M, 2-methyl-2,4-pentanediol 40%",0.015
same,A320 minus blank (turbidity),"NaCl 0.25 M, 2-methyl-2,4-pentanediol 45%",−0.012
same,A320 minus blank (turbidity),"NaCl 0.5 M, 1-propanol 0%",1.953
same,A320 minus blank (turbidity),"NaCl 0.5 M, 1-propanol 2.5%",2.170
same,A320 minus blank (turbidity),"NaCl 0.5 M, 1-propanol 5%",1.629
same,A320 minus blank (turbidity),"NaCl 0.5 M, 1-propanol 10%",1.313
same,A320 minus blank (turbidity),"NaCl 0.5 M, 1-propanol 15%",0.305
same,A320 minus blank (turbidity),"NaCl 0.5 M, 1-propanol 25%",−0.001
same,A320 minus blank (turbidity),"NaCl 0.5 M, 2-methyl-2,4-pentanediol 2.5%",2.045
